Test results from patent publication US20060264615A1 (MAXYGEN, published 2006).

T1: wild-type human p40 polypeptide (human, UniProt P29460 23-328)
T1 construct: Secreted from COS-7 or 293 cells co-transfected with a p35 nucleic acid; also called wt-p40
T1 sequence: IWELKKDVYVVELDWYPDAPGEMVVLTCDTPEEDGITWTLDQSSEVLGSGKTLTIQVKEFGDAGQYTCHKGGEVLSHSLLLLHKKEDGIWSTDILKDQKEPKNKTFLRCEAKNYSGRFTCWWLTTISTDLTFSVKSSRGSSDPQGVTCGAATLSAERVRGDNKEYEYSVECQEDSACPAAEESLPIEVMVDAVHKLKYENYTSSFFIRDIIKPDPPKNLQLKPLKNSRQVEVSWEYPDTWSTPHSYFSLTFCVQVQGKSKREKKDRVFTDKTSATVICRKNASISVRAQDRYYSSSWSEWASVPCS

T2: modified p35 polypeptide R2-571 with C-terminal EHtag
T2 construct: Recombinant (shuffled) p35 variant with the EHtag fused to its C-terminus; also called R2-571-EHtag
T2 chain: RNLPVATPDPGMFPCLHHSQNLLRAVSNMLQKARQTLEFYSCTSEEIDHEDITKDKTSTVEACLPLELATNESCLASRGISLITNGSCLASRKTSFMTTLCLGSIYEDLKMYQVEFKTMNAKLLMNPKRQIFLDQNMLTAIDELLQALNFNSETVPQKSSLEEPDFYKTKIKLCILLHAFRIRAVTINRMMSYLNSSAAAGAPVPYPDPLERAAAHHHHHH

B1: wild-type human p35 polypeptide (ligand)
chain: RNLPVATPDPGMFPCLHHSQNLLRAVSNMLQKARQTLEFYPCTSEEIDHEDITKDKTSTVEACLPLELTKNESCLNSRETSFITNGSCLASRKTSFMMALCLSSIYEDLKMYQVEFKTMNAKLLMDPKRQIFLDQNMLAVIDELMQALNFNSETVPQKSSLEEPDFYKTKIKLCILLHAFRIRAVTIDRVTSYLNAS
notes: Secreted from COS-7 or 293 cells co-transfected with a p40 nucleic acid; also called wt-p35

Tests used:
[1] = biological target: B1; experiment: immunoblot with anti-p35 mAB of COS-7 culture medium; ~70 kDa p40/p35 heterodimer band (FIG. 7)
[2] = biological target: T1, wild-type human p40 polypeptide; experiment: Western blot with anti-E tag mAB of heterodimer purified on an anti-E affinity column through the p35 EHtag (FIG. 14)
Excerpt: (§1) Co-expressing in mammalian cells a modified p40 nucleic acid of the invention plus a modified p35 nucleic acid of the invention produces a substantially more homogenous heterodimeric protein than the heterodimeric protein produced by co-expressing a wt-p40 nucleic acid and a wt-p35 nucleic acid. […] Both the modified p35 nucleic acid and the wt-p35 nucleic acid also comprised a C-terminal EHtag coding sequence.

[3] = biological target: T2, modified p35 polypeptide R2-571 with …; experiment: as above
Excerpt: as §1

[4] = biological target: T1, wild-type human p40 polypeptide; experiment: immunoblot with anti-p35 mAB of COS-7 culture medium; ~70 kDa p40/p35 heterodimer band, control (FIG. 7)

Row | binding result [1] | Binder | also measured
1 | binds | modified p40 polypeptide A3-48 (ligand) IWELEKNVYVVELDWYPDAPGEMVVLACDTPEEDGITWTSDQSSEVLGTGKTLTIHVKEFGDAGQYTCHKGGKVLSRSLLLLHKKEDGIWSTDILKDQKEPKNKSFLKCEAKNYSGRFTCWWLTTISTDLTFSVKSSRGSTDPHGVTCGTATLSEDLGEYKKYRVECQEGSACPAAEESLPIEVVLEAVHKLKYENYTSSFFIRDIIKPDPPKNLQLRPLKNSRQVEVNWEYPDTWSTPHSYFSLTFCVQVQGRNKREKKLFMDQTSAKVTCHKDAKIRVQARDRYYSSSWSDWASVSCG | 
2 | binds | modified p40 polypeptide B1-81 (ligand) IWELEKNVYVVELDWYPDAPGETVVLACDTPEEDGITWTSDQSSEVLGTGKTLTIHVKEFGDAGQYTCRKGGAVLSQSLLLLHKKEDGIWSTDILKDQKKPKNKIFLKCEAKNYSGRFTCWWLTAISTDLKFTVKSSRGSSDPQGVTCGAVTLSAERVSMDHREYNKYTVECQEGSACPSAEESLPIEVVVDAIHKLKYENYTSRFFIRDIIKPDPPKNLQLRPLKNSRHVEISWEYPDTWSTPHSYFSLTFCVQVQGKNKREKKLFMDQTSAKVTCHKDAKIRVQARDRYHSSSWSEWASVPCS | 
3 | binds | modified p40 polypeptide B2-52 (ligand) IWELEKNVYVVELDWYPDAPGEMVVLACDTPEEDGITWTSDQSSGVLGTGKTLTIHVKEFGDAGQYTCRKGGAVLSQSLLLLHKKEDGIWSTDILKDQKEPKAKSFLKCEAKDYSGHFTCWWLTTISTDLKFSVKSSRGSSDPQGVTCGAVTLSAERVSMDHREYNKYTVECQEGSACPSAEESLPIEVVVDAIHKLKYENYTSSFFIRDIIKPDPPKNLQLRPLKNSRQVEVNWEYPDTWSTPHSYFSLTFCVQVQGKNKREKKLFMDQTSAKVTCHKDAKIRVQARDRYYSSSWSEWASVPCS | 
4 |  | wild-type human p35 polypeptide with C-terminal EHtag (ligand, wt-p35 with the EHtag fused to its C-terminus; also called wt-p35-EHtag) RNLPVATPDPGMFPCLHHSQNLLRAVSNMLQKARQTLEFYPCTSEEIDHEDITKDKTSTVEACLPLELTKNESCLNSRETSFITNGSCLASRKTSFMMALCLSSIYEDLKMYQVEFKTMNAKLLMDPKRQIFLDQNMLAVIDELMQALNFNSETVPQKSSLEEPDFYKTKIKLCILLHAFRIRAVTIDRVTSYLNASAAAGAPVPYPDPLERAAAHHHHHH | binding result [2]: binds
5 | binds | modified p40 polypeptide B8-96 (ligand) IWELEKNVYVVELDWYPDAPGEMVVLACDTPEEDGITWTSDQSSEVLGTGKTLTIHVKEFGDAGQYTCRKGGAVLSQSLLLLHKKEDGIWSTDILKDQKEPKNKSFLKCEAKNYSGRFTCWWLTTISTDLKFSVKSSRGSSDPRGVTCGAALLSAEKVSLEHREYKKYRVECQEGSACPAAEESLPIEVVLEAVHKLKYENYTSSFFIRDIIKPDPPKNLQLRPLKNSRQVEVNWEYPDTWSTPHSYFSLTFCVQVQGKNKREKKLFMDQTSAKVTCHKDAKIRVQARDRYYSSSWSEWASVPCS | 
6 | binds | modified p40 polypeptide C2-22 (ligand, Recombinant (shuffled) p40 variant; the mature region is stated as residues 23-324; also called p40C2-22) IWELKKDVYVVELDWYPNAPGETVVLTCDTPEEDGITWTSDQSSEVLGTGKTLTIHVKEFGDAGQYTCRKGGEALSRSLLLLHKKEDGIWSTDILKDQKEPKNKSFLKCEAKNYSGRFTCWWLTTISTDLKFSVKSSRGSTDPRGVTCGTATLSEDLGEYKKYRVECQEGSACPAAEESLPIEVVLEAVHKLKYENYTSSFFIRDIIKPDPPKNLQLKPLKNSRHVEVSWGYPDTWSTPHSYFSLTFCIQVQGKSKREKKDRIFTDKTSATVICRKNAKIRVQARDRYYSSFWSEWASVSCS | binding result [3]: binds
7 | binds | modified p40 polypeptide A16-94 (ligand) IWELKKDVYVVELDWYPDAPGEMVVLACDTPEEDGITWTSDQSSEVLGTGKTLTIHVKEFGDAGQYTCHKGGTVLSQSLLLLHKKEDGIWSTDILKDQKEPKNKSFLKCEAKNYSGRFTCWWLTAISTDLKFTVKSSRGSTDPRGVTCGTATLSEDLGEYKKYRVECQEGSACPAAEESLPIEVVLEAVHKLKYENYTSSFFIRDIIKPDPPKNLQLRPLKNSRHVEVSWEYPDTWSAPHSYFSLTFGVQVQGRNKREDRLFMDQTSAKVVCHKDAKIRVQARDRYYSSSWSEWASVSLQSV | 
8 |  | B1 | binding result [4]: binds
